US20260207779

Test system: TALE-TadA8e(V106W) (Escherichia coli)
Experiment: cell_activity
Details: paired TALE-TadA8e(V106W) without nickase, value is the maximum over three loci

Substance MT-ND1 target has an activity of under 0.39%.
With MT-ND4 target the activity was under 0.39%.
MT-RNR2 target showed an activity (barely above sequencing error) of under 0.39%.
